Assay results as given in the supplement of paper PMC9170038.

Test system: MS2 coat protein
Test: apparent KD of MS2 coat protein; designed switch direction (-1 OFF switch, 1 ON switch): -1; higher = weaker reporter binding
Procedure, shortened: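 Transcription of designed RNA switches on Illumina chips was done by stalled E. coli RNA polymerase. SNAP-549-labelled MS2 coat protein was then titrated in doubling steps from 0.7 or 1.5 nM to 3 µM, with steps of 0.8–1.5 h at the lowest and 10–20 min at the highest concentration. The per-design median over clusters of curve-fitted normalised fluorescence is reported as apparent KD.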

[1] = input ligand: microRNA oligo, concentration not stated
[2] = Eterna round: R95, input ligand: FMN 200 uM
[3] = Eterna round: R95, input ligand: microRNA oligo, concentration not stated
[4] = Eterna round: R95, input ligand: none

Sequence	apparent KD of MS2 coat protein (input ligand: FMN 200 uM)	apparent KD of MS2 coat protein [1]	apparent KD of MS2 coat protein (input ligand: none)	apparent KD of MS2 coat protein [2]	apparent KD of MS2 coat protein [3]	apparent KD of MS2 coat protein [4]
ACAUGUUGUGCAGGAUAUGGGACACAUGAGGAUCACCCAUGUGGCUACAUGUCAUACCAAGCGUCUCAGAAGGGUAUUAACAUG [Ex NG2 #37] (Eterna round: R96, puzzle: Exclusion NG 2)	31.9 nM	24.8 nM	23.2 nM			
GCAGCAUAGAUGAAAAUCUGAUACAUGAGGAUCACCCAUGUUCAGGAUAUGGUCUGGAUUACAGGCCAGAAGGGAACAAGCUGC [Eli exng3 - 011] (Eterna round: R96, puzzle: Exclusion NG 3)	14 nM	10.3 nM	12 nM			
AGCGGAGAUGUCAGGAUAUCUCGCUCGGUGGGUUGAGAGAAGGGACAUGAGGAUCACCCAUGUCUGCAAUUGUC [Eternabot (Original) Solution 46] (Eterna round: R97, puzzle: Brourd's mod of Exclusion 4)	19.9 nM		17.9 nM			
AGAUGUAGAAACCGAUCCUACAUGAGGAUCACCCAUGUAGCAAGACGUGCACGCGAAGCUCGUCAGACUACCAGAAG [salish99_TOv1_r3_082] (puzzle: Sensor v3, turn-off variant 1)				270 nM	188 nM	352 nM
GUGGGUUACAUGAGGAUCACCCAUGUAGAGUGGGAAGAGAGAUAGGAUAUGAUGUGAGAAUCAUAUCAGAAGGAUCGAGACUCG [AK ExNG3-2.3] (Eterna round: R96, puzzle: Exclusion NG 3)	512 nM	158 nM	354 nM			
CUUAGCCUAAAAUCACGCAAGCUCUUUGCUUGUCUUAAGACAUGAGGAUCACCCAUGUCCGGGCUGAACUUAUGGAA [Qugegele] (puzzle: Sensor v3, turn-off variant 2)				19.9 nM	24.9 nM	21 nM
UUUUACAUAGGAUAUAGUUUGUUGUACAUGAGGAUCACCCAUGUUGUUGGUUGUGCUGUUCUAGAAGGAUGUUUCU [JR_E5_Sub014] (puzzle: Exclusion 5)					37.3 nM	
GCUCGCGGGCAAGGAUAUCCUACGCUGUUCUGGUUCGUGUCUGUUACAUGAGGAUCACCCAUGUGGGAGAAGGUGCACCAGGGC [Design 48] (Eterna round: R96, puzzle: Exclusion NG 2)	13.7 nM	9.98 nM	14.7 nM			
UGUGCUCUAGGAUAUGCGUAAGCUGAUACGUCAGCAGGUCUACAUGAGGAUCACCCAUGUAGAAGGAGAGUACU [jl-ex2-4.00] (Eterna round: R97, puzzle: Exclusion 2)	18.6 nM		20.8 nM			
AAGUGGAAAACACAAUUGUACAUGAGGAUCACCCAUGUAUGUACGAAAUAUAGACAAGCUGUAUGCUCGACAACACA [Sensor v2 M17] (Eterna round: R96, puzzle: Sensor v2, turn-off variant)	36.3 nM	18.3 nM	37 nM			
CUGUACUAAGGAUAUACAUGAGGAUCACCCAUGUCGAUGGUAGGCUGACCGUGACUCCGUAGAAGGUAGAUUCC [Eternabot (L1) Solution 77] (Eterna round: R97, puzzle: Exclusion 3)	100 nM		81.5 nM			
GUGCAAUGAGGAUAUACGUAGGUGAACAUCUGUGUGCUCCUACAUGAGGAUCACCCAUGUAGAAGGCAUGUCAC [LRO-Excl2-17] (puzzle: Exclusion 2)					13.1 nM	
AGAGAAUAGGUAGGAUAUCUUAAUAGAAAGAAUAGAGAAGGACCACAUGAGGAUCACCCAUGUGAUGUCUUGAGACUACAUGGU [Prohibition 32 - Jieux - Exclusion NG 1] (Eterna round: R96, puzzle: Exclusion NG 1)		13.3 nM				
CUUAUGUAAGGAUAUGCCUGGCCGUGAGGCCAAAUUGAAUAGCAGAAGGUACAUGAGGAUCACCCAUGUACGGG [jl-ex4-4.63 ViennaUCT mod] (Eterna round: R97, puzzle: Exclusion 4)	325 nM		364 nM			
UGAUCUAGCGGAGGAUAUACAUGAGGAUCACCCAUGUAUAGUCUAUGACCGUAGUCGUGGAACGUGUAGAAGGCCGCUAGAUCU [JL ENG2 3.78] (Eterna round: R96, puzzle: Exclusion NG 2)	18.4 nM	10.2 nM	14.4 nM			
UCGGCGCGAGGAUAUACGGUUGCUUGGUAGGGUCGUGGCGUACAUGAGGAUCACCCAUGUAGAAGGCGCGCCGC [Apr-15 SS2-31] (puzzle: Exclusion 2)					15.9 nM	
AAGUAGUGUGUGAGGAUAUUGGUGGAAUGACACAUUAAGAAGGCACAUGAGGAUCACCCAUGUGGGUUGACACG [Brourd's EX4 #20] (Eterna round: R97, puzzle: Brourd's mod of Exclusion 4)	282 nM		47 nM			
AAAAUUGUAGGAUAUUAGGCAGACAACAUGAGGAUCACCCAUGUCCGUGAUCUUAGGCACUGAGAAGGAUAAGCCU [Eternabot (Original) Solution 23] (Eterna round: R97, puzzle: Exclusion 5)	147 nM		159 nM			
AGAUCACAUGAGGAUCACCCAUGUCAGGAUAUCAUCAUUGAAGCUUCGGCUUCAAUGAUGAGAAGGGACAUAAU [E1/2-B1] (Eterna round: R97, puzzle: Exclusion 1)	297 nM		598 nM			
GUCAUCACACAUGGGAUCAACAUGAGGAUCACCCAUGUUGCCAAGUUGUUUGCACGUCUUAUCAUACGUUUUUCGAG [Mod-Jxh] (Eterna round: R97, puzzle: Sensor, turn-off variant 1)	22.9 nM		23.2 nM			
UCUCGCGGGCAAGGAUAUCCUACGUUGUUCUGGCCCGUGCAUGUUACAUGAGGAUCACCCAUGUGGGAGAAGGUGCACCAGGGC [Design 38] (Eterna round: R96, puzzle: Exclusion NG 2)	56.9 nM	30.3 nM	52.5 nM			
AGAGGACAUGAGGAUCACCCAUGUAAGGAUAUGCGGAGAGUUUGGAGAGGUCGGGUAGGCAGAAGGUACAGGAG [JR_Exclu1_Sub050] (puzzle: Exclusion 1)				82.2 nM	92.5 nM	89.4 nM
GUUUCACAUGAGGAUCACCCAUGUGAGGAUAUGUUAUUAAUGGCGAUAGUUAUUGGUGGCAGAAGGCGCGUGAU [JR_Exc1_Sub010] (Eterna round: R97, puzzle: Exclusion 1)	115 nM		50.2 nM			
GGCGUGUAUUAGGAUAUUGGAGGGAGGGAGGGCUAAGAAGGAGUAACAUGAGGAUCACCCAUGUAGAGGAAGGG [RHig 2] (Eterna round: R97, puzzle: Exclusion 6)	63.1 nM		95.3 nM			
CAUGGAACAUAGGAUAUCUCGCGGCUAGGCUGCAGAGAAGGAUGUACAUGAGGAUCACCCAUGUAUGAUCCAAU [Ataratin] (puzzle: Exclusion 6)					16.3 nM	
GGUAGUAUGAGUAGUCCUCAUUGAAGAGAUUAGUAAGAAACAUGAGGAUCACCCAUGUUAGAACAAGCUUUUGCUCA [JR_Sv3TOV2_Sub004] (puzzle: Sensor v3, turn-off variant 2)				113 nM	45.7 nM	142 nM
